In patent US20240376185A1 (SMIVET B V, published 2024):

How the values were obtained:
[1] = target: T1, tetanus neurotoxin (TeNT), authentic tetanus holotoxin (Clostridium tetani, UniProt P04958 2-1315); experiment: bridging ELISA: coated TeNT, SDA, biotinylated TeNT, StrepPO (bivalent binding)
[2] = target: T1, tetanus neurotoxin (TeNT), authentic …; experiment: as above; remark: listed apart in the source
[3] = target: T2, dog albumin (dog Alb) (dog, UniProt P49822 25-608); experiment: ELISA: coated dog Alb, anti-his6 PO
T2 construct: also called Canine albumin

[4] = target: T1, tetanus neurotoxin (TeNT), authentic …; experiment: ELISA: directly coated TeNT, anti-his6 PO
[5] = target: T1, tetanus neurotoxin (TeNT), authentic …; experiment: GT1b-TeNT inhibition ELISA
[6] = target: T1, tetanus neurotoxin (TeNT), authentic …; experiment: GT1b-TeNT inhibition ELISA; remark: listed apart in the source
[7] = target: T3, horse albumin (horse Alb) (horse, UniProt P35747 25-607); experiment: bridging ELISA: cAb-TT2-captured TeNT, SDA, biotinylated horse Alb, StrepPO
[8] = target: T1, tetanus neurotoxin (TeNT), authentic …; experiment: ELISA: directly coated TeNT, anti-his6 PO; remark: listed apart in the source
[9] = target: T1, tetanus neurotoxin (TeNT), authentic …; experiment: ELISA: directly coated TeNT, goat anti-llama Ig PO
[10] = target: T2, dog albumin (dog Alb); experiment: ELISA: coated dog Alb, anti-his6 PO; remark: listed apart in the source
[11] = target: T1, tetanus neurotoxin (TeNT), authentic …; experiment: ELISA: directly coated TeNT, goat anti-llama Ig PO; remark: listed apart in the source
[12] = target: T1, tetanus neurotoxin (TeNT), authentic …; experiment: BLI (Octet Red96): biotinylated TeNT on SA sensor, SDA as analyte
[13] = target: T3, horse albumin (horse Alb); experiment: bridging ELISA: cAb-TT2-captured TeNT, SDA, biotinylated horse Alb, StrepPO; remark: listed apart in the source
[14] = target: T4, Cat albumin (cat, UniProt P49064 25-608); experiment: BLI (Octet Red96), SDA on Ni-NTA sensor, albumin as analyte
T4 construct: also called Feline albumin; Feline Alb

[15] = target: T5, Dog albumin (dog, UniProt P49822 25-608); experiment: as above
T5 construct: also called Canine albumin; Canine Alb

[16] = target: T6, Swine albumin (swine, UniProt P08835 25-607); experiment: as above
T6 construct: also called Porcine Alb

[17] = target: T7, Horse albumin (horse, UniProt P35747 25-607); experiment: as above
T7 construct: also called Equine albumin; Equine Alb

[18] = target: T8, swine albumin (swine, UniProt P08835 25-607); experiment: ELISA on coated albumin
T8 construct: also called Porcine albumin

[19] = target: T9, human albumin (human, UniProt P02768 25-609); experiment: ELISA on coated albumin
[20] = target: mouse albumin (mouse, UniProt P07724 25-608); experiment: ELISA on coated albumin
[21] = target: T10, bovine albumin (bovine, UniProt P02769 25-607); experiment: ELISA on coated albumin
[22] = target: T11, chicken ovalbumin (chicken, UniProt P01012 2-386); experiment: ELISA on coated albumin
T11 construct: also called Chicken Alb
T11 sequence (looked up): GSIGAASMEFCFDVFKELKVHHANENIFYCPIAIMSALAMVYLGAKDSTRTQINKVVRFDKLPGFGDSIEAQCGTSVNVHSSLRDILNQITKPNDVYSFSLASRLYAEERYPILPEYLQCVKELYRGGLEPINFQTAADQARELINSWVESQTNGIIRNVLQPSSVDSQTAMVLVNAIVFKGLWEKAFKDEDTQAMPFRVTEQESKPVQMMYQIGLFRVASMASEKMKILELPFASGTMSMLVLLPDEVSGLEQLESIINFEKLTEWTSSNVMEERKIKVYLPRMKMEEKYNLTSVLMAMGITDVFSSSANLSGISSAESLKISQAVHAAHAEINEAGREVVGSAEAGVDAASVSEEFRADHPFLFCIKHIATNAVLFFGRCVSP

[23] = target: T12, sheep albumin (sheep, UniProt P14639 25-607); experiment: ELISA on coated albumin
[24] = target: T13, dog albumin (dog, UniProt P49822 25-608); experiment: ELISA on coated albumin
T13 construct: also called Canine albumin

[25] = target: T14, horse albumin (horse, UniProt P35747 25-607); experiment: ELISA on coated albumin
T14 construct: also called Equine albumin

[26] = target: T9, human albumin; experiment: ELISA; A450 below 0.2 at highest SDA concentration
[27] = target: T10, bovine albumin; experiment: ELISA; A450 below 0.2 at highest SDA concentration
[28] = target: T11, chicken ovalbumin; experiment: ELISA; A450 below 0.2 at highest SDA concentration
[29] = target: T12, sheep albumin; experiment: ELISA; A450 below 0.2 at highest SDA concentration
[30] = target: T15, cat albumin (cat, UniProt P49064 25-608); experiment: ELISA on cat albumin captured from serum
T15 construct: also called Feline albumin

[31] = target: T16, horse serum albumin (horse, UniProt P35747 25-607); experiment: BLI, Octet Red96
T16 construct: mature; also called horse Alb; Equine albumin

B1: SVT06-GS2-SVA12M2-H6 (bispecific antibody)
chain: QVQLQESGGGSVQAGGSLRLSCTASELSYDDYTIAWFRRAAGEGRVEDGEGVASITKSYDRAYDNKINYGHSVKGRFTISRDNAKNTVYLQMTDLLPSDTAVYYCALDITPPGGVGASLTEGFLFDYWGQGTQVTVSSGGGGSGGGSEVQLVESGGGLVQAGGSLRLSCAASGRTFSYYPMAWFRQAPGQEREFVAAIIGADTTYYADSLKGRFTISRDNAKNMVYLQMNSLKPEDTAVYYCAARNTYWSDVYYREGQYTNWGQGTQVTVSSHHHHHH
maximal absorbance value [1]: 0.66 A450 | Effective SDA Concentration at A450 0.3 [2]: 19 ng/mL | Effective SDA Concentration at A450 0.2 [3]: 39 ng/mL | maximal absorbance value [4]: 1.59 A450 | minimal absorbance value (GT1b-TeNT inhibition) [5]: 0.18 A450 | Effective SDA Concentration at A450 0.56 [6]: 55 ng/mL | Effective SDA Concentration at A450 0.7 [7]: 1.5 ng/mL | Effective SDA Concentration at A450 0.15 [8]: 3.5 ng/mL | Effective SDA Concentration at A450 0.15 [9]: 1.1 ng/mL | maximal absorbance value [10]: 1.67 A450 | maximal absorbance value [11]: 1.21 A450 | Kd [12]: 0.151 nM | koff [12]: 8.9e-05 s⁻¹ | kon [12]: 591000 M⁻¹ s⁻¹ | maximal absorbance value [13]: 1.47 A450

B2: SVT15-3FW4M-GS2-SVA12M2-H6 (bispecific antibody)
chain: QVQLQESGGGLVQTGGSLRLSCRASGRAFANYHFGWFRQAPGKDREFVASISWKGGSTYYANFALGRFTSSVDRAESSVYLQMSGLTPEDTATYYCAAHDGGDWNYHTGMDYWGQGTQVTVSSGGGGSGGGSEVQLVESGGGLVQAGGSLRLSCAASGRTFSYYPMAWFRQAPGQEREFVAAIIGADTTYYADSLKGRFTISRDNAKNMVYLQMNSLKPEDTAVYYCAARNTYWSDVYYREGQYTNWGQGTQVTVSSHHHHHH
maximal absorbance value [1]: 0.64 A450 | Effective SDA Concentration at A450 0.3 [2]: 33 ng/mL | Effective SDA Concentration at A450 0.2 [3]: 76 ng/mL | maximal absorbance value [4]: 1.35 A450 | minimal absorbance value (GT1b-TeNT inhibition) [5]: 0.15 A450 | Effective SDA Concentration at A450 0.56 [6]: 78 ng/mL | Effective SDA Concentration at A450 0.7 [7]: 3.9 ng/mL | Effective SDA Concentration at A450 0.15 [8]: 8 ng/mL | Effective SDA Concentration at A450 0.15 [9]: 2 ng/mL | maximal absorbance value [10]: 1.55 A450 | maximal absorbance value [11]: 1.36 A450 | maximal absorbance value [13]: 1.34 A450

B3: SVA12L (VHH)
VHH: QVQLQESGGGLVQAGGSLRLSCAASGRTFSYYPMAWFRQAPGQEREFVAAIIGADTTYYADSLKGRFTISRDNAKNMVYLQMNSLKPEDTAVYYCAARNTYWSDVYYREGQYTNWGQGTQVTVSS
Kd [14]: 19 nM | koff [14]: 0.000737 s⁻¹ | kon [14]: 38800 M⁻¹ s⁻¹ | Kd [15]: 271 nM | koff [15]: 0.0125 s⁻¹ | kon [15]: 45900 M⁻¹ s⁻¹ | Kd [16]: 159 nM | koff [16]: 0.0238 s⁻¹ | kon [16]: 150000 M⁻¹ s⁻¹ | Kd [17]: 10.7 nM | koff [17]: 0.00109 s⁻¹ | kon [17]: 101000 M⁻¹ s⁻¹

B4: SVA06L (VHH)
VHH: QVQLQESGGRLVQAEDSLRLSCAASGRTFVSYDMGWFRQAPGKEREFVAAINWRGYTTDYVDSVKGRFFISRDIAKSTVYLQMNNLKPEDTAVYYCAARQMSGSSRYSPPGRVGYDFWGQGTQVTVSS
SDA Effective Concentration resulting in A450 nm = 0.2 [18]: 344 ng/mL | maximal absorbance value at 450 nm [18]: 0.288 A450 | maximal absorbance value at 450 nm [19]: 0.05 A450 | SDA Effective Concentration resulting in A450 nm = 0.2 [20]: 180 ng/mL | maximal absorbance value at 450 nm [20]: 0.36 A450 | maximal absorbance value at 450 nm [21]: 0.052 A450 | maximal absorbance value at 450 nm [22]: 0.054 A450 | maximal absorbance value at 450 nm [23]: 0.052 A450 | SDA Effective Concentration resulting in A450 nm = 0.2 [24]: 51 ng/mL | maximal absorbance value at 450 nm [24]: 0.921 A450 | SDA Effective Concentration resulting in A450 nm = 0.2 [25]: 235 ng/mL | maximal absorbance value at 450 nm [25]: 0.483 A450 | binding result [26]: no binding (tested: 1000 ng/ml) | binding result [27]: no binding (tested: 1000 ng/ml) | binding result [28]: no binding (tested: 1000 ng/ml) | binding result [29]: no binding (tested: 1000 ng/ml) | maximal absorbance value at 450 nm [30]: 0.158 A450

B5: SVT16-L123Q-GS2-SVG13M4-H6 (bispecific antibody)
chain: QVQLQESGGGSVQAGDSLRLSCAASGRTISNYAMGWFRQAPGKQREFVAAISRSDNTYYTDSVKGRFTISRDNAKNTLYLQMNSLKPEETAVYYCAADPNLMYESKWKYRALEAWGQGTQVTVSSGGGGSGGGSEVQLVESGGGLVQPGGSLRLSCEASGFTFDDYGMSWVRQAPGKGLEWVSSLTPNGGSTYYADSVKGRFTISRDNAKNTLYLQMNSLKPEDTALYYCAKNSYYGAMDYWGQGTQVTVSSHHHHHH
binding result [31]: no binding (tested: 100 nM)

B6: SVG13L (VHH)
VHH: QVQLQESGGGLVQPGGSLRLSCEASGFTFDDYGMSWVRQAPGKGLEWVSSLTPNGGSTYYADSVKGRFTISRDNAKNTLYLQMNSLKPEDTALYYCAKNSYYGAMDYWGKGTLVTVSS
notes: yeast-produced
binding result [31]: no binding (tested: 100 nM)
